B1: Cell death abnormality protein 1 (Caenorhabditis elegans), Q9XWD6 (parent)
chain: MRLILLVLLATWQVVVDTRAPTFPDKLTQQLQQQGTTEPQGDHVCTVKTIVDDYELKKVIHTVVYNDTEQCLNPLTGFQCTVEKRGQKASYQRQLVKKEKYVKQCCDGYYQTKDHFCLPDCNPPCKKGKCIEPGKCECDPGYGGKYCASSCSVGTWGLGCSKSCDCENGANCDPELGTCICTSGFQGERCEKPCPDNKWGPNCVKSCPCQNGGKCNKEGKCVCSDGWGGEFCLNKCEEGKFGAECKFECNCQNGATCDNTNGKCICKSGYHGALCENECSVGFFGSGCTQKCDCLNNQNCDSSSGECKCIGWTGKHCDIGCSRGRFGLQCKQNCTCPGLEFSDSNASCDAKTGQCQCESGYKGPKCDERKCDAEQYGADCSKTCTCVRENTLMCAPNTGFCRCKPGFYGDNCELACSKDSYGPNCEKQAMCDWNHASECNPETGSCVCKPGRTGKNCSEPCPLDFYGPNCAHQCQCNQRGVGCDGADGKCQCDRGWTGHRCEHHCPADTFGANCEKRCKCPKGIGCDPITGECTCPAGLQGANCDIGCPEGSYGPGCKLHCKCVNGKCDKETGECTCQPGFFGSDCSTTCSKGKYGESCELSCPCSDASCSKQTGKCLCPLGTKGVSCDQKCDPNTFGFLCQETVTPSPCASTDPKNGVCLSCPPGSSGIHCEHNCPAGSYGDGCQQVCSCADGHGCDPTTGECICEPGYHGKTCSEKCPDGKYGYGCALDCPKCASGSTCDHINGLCICPAGLEGALCTRPCSAGFWGNGCRQVCRCTSEYKQCNAQTGECSCPAGFQGDRCDKPCEDGYYGPDCIKKCKCQGTATSSCNRVSGACHCHPGFTGEFCHALCPESTFGLKCSKECPKDGCGDGYECDAAIGCCHVDQMSCGKAKQEFEALNGAGRSTGLTWFFVLLIVALCGGLGLIALFYRNKYQKEKDPDMPTVSFHKAPNNDEGREFQNPLYSRQSVFPDSDAFSSENNGNHQGGPPNGLLTLEEEELENKKIHGRSAAGRGNNDYASLDEVAGEGSSSSASASASRRGLNSSEQSRRPLLEEHDEEEFDEPHENSISPAHAVTTSNHNENPYADISSPDPVTQNSANKKRAQDNLYT
partner: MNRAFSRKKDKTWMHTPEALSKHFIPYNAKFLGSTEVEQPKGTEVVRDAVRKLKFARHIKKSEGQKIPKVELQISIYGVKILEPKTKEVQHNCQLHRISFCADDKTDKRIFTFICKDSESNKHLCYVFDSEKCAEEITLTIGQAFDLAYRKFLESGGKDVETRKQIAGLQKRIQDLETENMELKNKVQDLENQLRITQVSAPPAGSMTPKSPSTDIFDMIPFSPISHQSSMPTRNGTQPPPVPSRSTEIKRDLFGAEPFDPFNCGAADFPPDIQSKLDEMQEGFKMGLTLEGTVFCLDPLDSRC
B2: Cell death abnormality protein 1 (Caenorhabditis elegans), Q9XWD6 (parent)
chain: B1 chain
partner: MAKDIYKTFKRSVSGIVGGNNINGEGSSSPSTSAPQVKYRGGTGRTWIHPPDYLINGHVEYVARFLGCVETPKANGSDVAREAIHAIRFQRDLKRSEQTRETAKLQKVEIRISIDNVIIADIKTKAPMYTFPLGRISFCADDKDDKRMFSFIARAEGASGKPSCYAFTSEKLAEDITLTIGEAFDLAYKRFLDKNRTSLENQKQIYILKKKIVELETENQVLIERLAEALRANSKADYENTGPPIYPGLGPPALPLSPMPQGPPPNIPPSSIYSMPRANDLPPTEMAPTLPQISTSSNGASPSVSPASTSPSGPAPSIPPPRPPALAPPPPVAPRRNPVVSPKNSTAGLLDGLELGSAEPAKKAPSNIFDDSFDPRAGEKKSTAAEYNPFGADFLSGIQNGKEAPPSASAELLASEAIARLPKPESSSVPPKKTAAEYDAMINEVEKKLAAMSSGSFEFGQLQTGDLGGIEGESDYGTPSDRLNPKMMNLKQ

Variants of: B1
Details: with gulp1_human GULP1, Q9UBP9

| Variant | effect of a mutation on the interaction |
| --- | --- |
| N962A | disrupting interaction strength |

Variants of: B2
Details: with ced6_caeel ced-6, O76337

| Variant | effect of a mutation on the interaction |
| --- | --- |
| N962A | disrupting interaction strength |

From IntAct's records for PubMed 11729193
